# Results taken from patent US9101618B2, “Method for treating and/or preventing neurodegenerative disease by adiponectin receptor agonist” (TOKYO METROPOLITAN INSTITUTE OF MEDICAL SCIENCE, priority 2011, dated 2015).
# Assays:
# p38 MAPK = assay: Adiponectin addition (2): signal transduction, phospho-p38 MAPK western blotting; format: cell-based, rat; conditions: 1 μg/mL, 0, 10 and 30 min
# Protocol: (§1) The B103 neuroblastoma cells (α (alpha)S) and the B103 neuroblastoma cells (vector) were inoculated on a 5 cm dish and cultured to a state of about 80-90% confluence. Later, the aforementioned cells were washed with PBS, and then cultured in a serum-free medium for four hours. After washing with PBS, the cells were then cultured in a test medium (adiponectin-added group) prepared by adding recombinant human adiponectin (1_μg/mL, trimer, PROSPEC) to a serum-free medium. As a control, there was used a control medium (adiponectin non-added group) prepared by adding thereto PBS instead of recombinant human adiponectin. A culture time was 0, 10 and 30 min when evaluating signal transduction, 0, 1 and 2 hour(s) when evaluating tau phosphorylation. The cells collected were lysed with a cell lysis solution (1% TritonX-100, 1% Nonidet P-40, 50 mM HEPES, 150 mM NaCl, 10% glycerol, 1.5 mM MgCl2, 1 mM EGTA, 100_mM sodium fluoride, a protease inhibitor (NACALAI TESQUE, INC.)). Supernatants were collected after performing centrifugation at 100,000×g for 30 min, and were used as surfactant soluble fractions when performing western blotting. Here, western blotting was performed in accordance with the procedures described in example 1. […]
# [1] = target: T1, human α (alpha)-synuclein recombinant protein (Homo sapiens, UniProt P37840); assay: Protein-protein interaction of α-synuclein and adiponectin in test tube (western blotting); format: binding; conditions: 48 hours, 37° C.
# T1 construct: made in house
# Protocol: Human adiponectin recombinant protein (ProSpec, IWAI CHEMICALS COMPANY LTD.) 0.5 μg and human α (alpha)-synuclein recombinant protein (Hashimoto et al., Brain Res. 799:301 (1998)) 1.0 μg were incubated for 48 hours in 100 mM sodium acetate solution at 37° C., 500 rpm (Thermomixer, Eppendorf Co., Ltd.). Later, an analysis via western blotting was performed in accordance with procedures similar to those in example 1 through example 6. Each sample was dissolved in 1× sample buffer without 2ME, and heated at 95° C. for 10 min. With regard to a control experiment, incubation was performed at room temperature. Particularly, instead of α (alpha)-synuclein, BSA (1.0 μg) was incubated with adiponectin.
# B103 neuroblastoma cells = assay: Cytotoxicity due to the addition of adiponectin; format: cell-based, rat; conditions: 1 μg/mL
# Protocol: (§2) The B103 neuroblastoma cells (α (alpha)S) and the B103 neuroblastoma cells (vector) were prepared and cultured in accordance with the procedures described in example 3. The B103 neuroblastoma cells (α (alpha)S) and the B103 neuroblastoma cells (vector) were inoculated on the 6-well plate and cultured to a state of about 80-90% confluence. After washing with PBS, the aforementioned cells were further cultured for 24 hours in a test medium prepared by adding recombinant human adiponectin (1 μg/mL, trimer, PROSPEC) to a serum-free medium. As a control, there was used a control medium prepared by adding thereto PBS instead of recombinant human adiponectin. After culturing, there were prepared the TBS soluble fraction, the SDS soluble fraction and the formic acid soluble fraction in accordance with the procedures described in example 1. Further, western blotting was performed in accordance with the procedures described in example 1. In order to evaluate α (alpha)-synuclein aggregation, an anti-α (alpha)-synuclein mouse monoclonal antibody (syn-1, Nippon Becton Dickinson Company, Ltd) was used as a primary antibody when performing western blotting, the anti-α (alpha)-synuclein mouse monoclonal antibody being diluted appropriately before use. Additionally, an HRP labeled anti-mouse IgG antibody (DAKO) was used as a secondary antibody, the HRP labeled anti-mouse IgG antibody being diluted appropriately before use.
# The B103 neuroblastoma cells (α (alpha)S) and the B103 neuroblastoma cells (vector) were inoculated on a 5 cm dish and cultured to a state of about 80-90% confluence. Later, the aforementioned cells were washed with PBS, and then cultured in a serum-free medium for four hours. After washing with PBS, the cells were then cultured in a test medium (adiponectin-added group) prepared by adding recombinant human adiponectin (1_μg/mL, trimer, PROSPEC) to a serum-free medium. As a control, there was used a control medium (adiponectin non-added group) prepared by adding thereto PBS instead of recombinant human adiponectin. […]
# GSK-3β (beta) [2] = assay: Adiponectin addition (2): signal transduction, phospho-GSK-3β western blotting; format: cell-based, rat; conditions: 1 μg/mL, 0, 10 and 30 min
# Protocol: as §1
# tau = assay: Adiponectin addition (3): tau phosphorylation (western blotting); format: cell-based, rat; conditions: 1 μg/mL, 0, 1 and 2 hour(s), B103 neuroblastoma cells (αS)
# Protocol: as §1
# GSK-3β (beta) [3] = assay: Addition of p38 MAPK inhibitor and AMPK inhibitor: phospho-GSK-3β western blotting; format: cell-based, rat; conditions: 1 μg/mL adiponectin 30 min, no inhibitor
# Protocol: The aforementioned B103 neuroblastoma cells (α (alpha)S) were inoculated on the 6-well plate and cultured to a state of about 80-90% confluence. After washing with PBS, the aforementioned cells were further cultured for 10 min in an inhibition test medium prepared by adding either 5 μM p38 MAPK inhibitor (SB203580, Promega) or 5 μM AMPK inhibitor (Compound C, Calbiochem) to a serum-free medium. As a control, DMSO was added to a serum-free medium instead of the aforementioned inhibitors. Later, either recombinant human adiponectin (1 μg/mL, trimer, PROSPEC) or PBS was added so as to culture the cells for 30 min. The cells collected were then lysed with the aforementioned cell lysis solution. Supernatants were collected after performing centrifugation at 100,000×g for 30 min, and then subjected to western blotting. Here, western blotting was performed in accordance with the procedures described in example 1.
# When performing western blotting to evaluate signal transduction pathways, the anti-phospho-GSK-3β (beta) (Ser9) antibody (D85E12, Cell Signaling Technology), the anti-GSK-3β (beta) antibody (BD Biosciences) and the anti-β (beta)-actin mouse monoclonal antibody (C-15, Sigma-Aldrich Japan Inc.) were used as primary antibodies after being appropriately diluted. Further, the HRP labeled anti-mouse IgG antibody (DAKO) was used as a secondary antibody after being appropriately diluted.
# [4] = test system: B103 neuroblastoma cells (α (alpha)S); assay: Adiponectin addition (1): α-synuclein aggregation (western blotting of fractions); format: cell-based, rat; conditions: 1 μg/mL, 24 hours, serum-free medium
# Protocol: as §2, with “Additionally, an HRP labeled anti-mouse IgG antibody (DAKO) was used as a secondary antibody, the HRP labeled anti-mouse IgG antibody being diluted appropriately before use.” left out
molecule,measurement,setting,value
"adiponectin: recombinant human adiponectin (trimer, PROSPEC) added to serum-free medium at 1 μg/mL (protein, UniProt Q15848 19-244, looked up) Adiponectin: ETTTQGPGVLLPLPKGACTGWMAGIPGHPGHNGAPGRDGRDGTPGEKGEKGDPGLIGPKGDIGETGVPGAEGPRGFPGIQGRKGEPGEGAYVYRSAFSVGLETYVTIPNMPIRFTKIFYNQQNHYDGSTGKFHCNIPGLYYFAYHITVYMKDVKVSLFKKDKAMLFTYDQYQENNVDQASGSVLLHLEVGDQVWLQVYGEGERNGLYADNDNDSTFTGFLLYHDTN",phosphorylation of p38 MAPK,p38 MAPK,promoted
same,dimer of adiponectin,[1]; 0.5 μg adiponectin incubated with 1.0 μg α-synuclein,further increased
same,adiponectin aggregation,"[1]; in the presence of α-synuclein, densitometer values of aggregate range",significantly promoted
same,cytotoxicity,B103 neuroblastoma cells; 24 hours (α-synuclein aggregation experiment),not particularly observed
same,cytotoxicity,B103 neuroblastoma cells; signal transduction experiment,not particularly observed
same,cytotoxicity,B103 neuroblastoma cells; tau phosphorylation experiment,not particularly observed
same,phosphorylation of GSK-3β,GSK-3β (beta) [2],promoted
same,"amount of phosphorylated tau (Ser 202, Ser 396)",tau,decreased
same,phosphorylated GSK-3β in surfactant soluble fraction,GSK-3β (beta) [3],detected
same,α-synuclein in culture supernatant,[4],decreased
same,α-synuclein in the formic acid soluble fraction,[4],decreased
